The supplement of paper PMC10567573

B1: TOR1AIP2 (parent)
chain: YTSSQKVSPIQIDGAGRTWQDSDT
B2: ISL2 (parent)
chain: HYPFLGAMGDHSKKKPGTAMCVGC

Variants of: B1
Test: protein stability index of a GFP-peptide fusion (GPS, HEK-293T) (PSI 1-6); higher = more stable
Details: c terminus: a fixed tail appended
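Also: lentivirally expressed fusions sorted by FACS into six bins by GFP to DsRed ratio, PSI derived from sequencing read proportions per bin multiplied by bin number.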

Protein stability index of substitutions, site by site:
K6: P 4.01 | N 3.97 | R 3.41 | E 4.82 | A 3.58
G14: L 2.99 | R 1.95 | S 3.51 | H 3 | C 4.45 | P 3.28 | F 2.83 | D 3.46 | I 2.5
S3: C 3.55 | V 3.3 | L 3.18 | E 3.87 | Y 2.81 | D 4.32 | R 3.39 | N 4.21
T18: M 2.42 | V 3.29 | N 3.41 | G 3.47 | D 4.01 | Q 3.8 | E 3.83 | F 1.33
Q5: A 3.08 | C 2.13 | R 3.35 | L 3.58 | M 3.86 | P 2.96
V7: D 3.67 | R 3.43 | H 3.58 | C 2.67 | L 3.12 | K 4.03 | I 2.9
D23: S 2.73 | W 1.55 | G 2.72 | R 2.48
G16: N 1.93 | F 2.3 | A 3.07 | K 3.33 | W 1.61
D21: E 3.27 | C 2.85 | F 2.33 | A 2.73 | I 2.71 | V 2.39 | G 2.62
Y1: R 4.8 | S 4.77 | K 4.86 | I 4.3 | W 3.6
D13: G 3.07 | W 1.54 | R 2.36 | L 2.29 | I 2.35 | H 2.64
Q11: R 3.11 | C 2.47 | F 2.06 | Y 2.2 | L 2.8 | H 3.67 | T 3.56
Q20: H 2.71 | L 2.58 | C 3.34 | P 2.69 | I 2.42
W19: C 3.88 | A 3.93 | M 4.34 | T 4.35 | S 4.76 | H 4.09
T24: C 3.52 | P 3.55 | V 2.86 | K 3.29
S22: C 3.18 | M 2.18 | P 3.67
R17: Q 3.79 | A 3.66 | S 3.96 | D 4.16 | V 3.64 | L 3.21 | I 3.59
P9: D 3.94 | I 2.69 | T 3.98 | R 3.37 | H 3.22 | E 4.28 | M 3.12 | F 2.05 | C 3.02
A15: Y 2.91 | D 3.85 | L 2.93 | K 2.73
T2: A 3.8 | G 3.91 | D 5.15 | W 2.83 | Y 3.54 | Q 3.17 | F 4.19
S4: R 3.23 | V 3.27 | K 2.36 | T 3.34 | L 2.84 | A 3.06 | Q 3.25 | P 3.18
I10: Q 4 | T 3.96 | K 3.33 | S 3.93 | A 3.77 | M 3.44
I12: W 2.55 | L 3.29 | K 3.76 | C 2.7 | Y 3.19 | N 3.65 | H 4.21 | Q 4.03 | E 5
S8: F 2.75 | M 3.06 | N 4 | D 2.9 | L 2.82 | E 4.47 | Y 2.16 | P 3.1 | H 2.57

Variants of: B2
Test: as above
Details: c terminus: a fixed tail appended

Protein stability index: each site, then its substitutions
F4: V 3.3 | E 4.72 | Q 3.58 | M 3.48
S12: F 2.08 | E 3.03 | V 2.58 | Q 3.07 | G 2.56 | L 1.99 | T 2.59
M8: V 2.96 | R 3.19 | W 2.17 | G 3.85 | N 2.94 | E 3.81 | C 3.33 | Y 2.51
V22: I 2.08 | M 2.52 | T 3.42 | F 2.16 | D 3.43 | L 2.42 | C 3.39 | P 3.05
K13: A 2.15 | Y 2.06 | L 2.23 | M 2.31 | R 1.8 | G 2.65 | D 3.18 | N 2.79
K15: P 2.4 | A 2.27 | H 2.47 | C 3.46 | Q 2.52 | L 2.42 | T 2.75 | M 2.2
H11: L 2.21 | V 2.39 | D 3.5 | G 2.81 | P 3.16 | T 2.45 | I 2.33 | R 2.92 | N 2.92 | A 2.69 | C 2.64 | Q 3.25
G6: R 2.13 | F 1.86 | S 2.32 | L 2.07 | V 1.93 | H 2.46 | E 3.16
D10: W 1.64 | E 3.69 | I 2.2 | K 1.88 | G 2.18 | R 2.07
G9: T 2.82 | M 2.65 | K 2.52 | W 1.86 | S 2.65 | A 3.37 | I 1.95 | D 2.85 | N 2.58 | L 2.4 | E 3.58
P3: Y 1.69 | R 2.35 | K 2.15 | G 3.08 | W 1.76 | E 3.04 | C 2.84
C21: D 2.96 | R 2.79 | S 3.37 | K 3.81 | N 3.29 | M 2.28 | I 2.69
P16: W 2.41 | Q 2.44 | N 2.7 | S 2.69 | I 1.67 | H 2.61
G23: N 2.72 | H 2.52 | A 2.42 | K 3.18
T18: K 2.71 | F 2 | L 2 | R 1.81
L5: T 2.96 | R 2.66 | A 3.15 | I 3.14 | Q 3.16 | G 3.5 | M 3.01 | D 3.75 | V 2.63 | S 3.1 | Y 2.2 | P 3.13
M20: W 2.04 | V 2.62 | S 3.55 | E 3.62 | A 3.27 | K 3.7 | R 3.25 | Y 1.99
Y2: I 2.79 | V 2.6 | S 3.33 | T 4.07 | Q 3.04 | D 4.76 | H 2.48 | L 3.37 | F 2.55
K14: M 2.91 | A 2.29 | P 2.98 | I 2.78 | L 2.44 | V 2.73 | R 2.67
A7: D 3.68 | M 2.31 | R 2.31 | N 3.6 | F 1.79 | H 2.45 | G 2.99 | K 2.86
C24: H 3.42 | W 1.68 | T 2.83 | G 3.17 | L 2.48
G17: C 3.97 | E 3.44 | A 2.86 | Y 2.58 | N 3.01 | P 2.75
H1: V 2.11 | A 3.6 | N 3.84 | P 2.75 | S 2.58 | L 2.01 | D 3.15 | R 2.7 | K 2.62 | Q 2.92 | M 1.82 | Y 1.99
A19: H 3.2 | F 1.63 | N 2.44 | L 2.56 | C 4.28 | P 2.86
